This passage reports EC50 results from patent publication US20250115680A1 (PROFOUNDBIO US, published 2025).

The target of experiment [1] is T1, human PTK7 on the surface of PTK7-expressing tumor cell lines (human, UniProt Q13308 31-1070).
T1 construct: whole, on cells
T1 sequence (looked up): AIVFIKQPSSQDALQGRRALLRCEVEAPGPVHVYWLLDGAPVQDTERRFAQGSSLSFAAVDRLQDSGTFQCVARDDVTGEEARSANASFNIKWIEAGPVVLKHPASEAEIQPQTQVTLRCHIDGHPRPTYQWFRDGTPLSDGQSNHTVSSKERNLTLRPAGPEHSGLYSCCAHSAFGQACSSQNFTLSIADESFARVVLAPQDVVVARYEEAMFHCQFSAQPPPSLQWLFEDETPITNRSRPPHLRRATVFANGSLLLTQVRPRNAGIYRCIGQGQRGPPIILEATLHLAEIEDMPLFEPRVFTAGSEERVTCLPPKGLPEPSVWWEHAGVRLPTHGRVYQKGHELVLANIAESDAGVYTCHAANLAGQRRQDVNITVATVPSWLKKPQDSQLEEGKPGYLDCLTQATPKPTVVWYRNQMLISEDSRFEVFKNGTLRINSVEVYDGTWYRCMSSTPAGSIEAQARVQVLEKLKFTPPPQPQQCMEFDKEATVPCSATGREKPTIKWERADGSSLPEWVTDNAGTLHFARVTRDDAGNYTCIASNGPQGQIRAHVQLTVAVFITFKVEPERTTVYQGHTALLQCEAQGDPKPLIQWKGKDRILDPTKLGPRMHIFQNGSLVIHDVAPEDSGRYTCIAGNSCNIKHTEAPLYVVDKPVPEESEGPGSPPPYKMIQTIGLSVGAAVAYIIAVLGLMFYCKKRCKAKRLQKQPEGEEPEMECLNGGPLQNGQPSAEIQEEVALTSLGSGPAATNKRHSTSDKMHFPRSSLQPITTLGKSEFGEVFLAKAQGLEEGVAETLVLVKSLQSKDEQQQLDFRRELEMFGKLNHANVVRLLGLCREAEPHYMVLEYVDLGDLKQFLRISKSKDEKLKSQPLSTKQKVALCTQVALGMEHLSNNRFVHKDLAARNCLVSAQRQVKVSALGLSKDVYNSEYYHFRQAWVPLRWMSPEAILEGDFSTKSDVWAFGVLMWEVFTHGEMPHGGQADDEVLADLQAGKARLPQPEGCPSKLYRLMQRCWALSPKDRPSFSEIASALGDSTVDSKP
In words: flow cytometry on MDA-MB-231 cells, PE anti-human Fc detection, MFI(PE).

Experiment [2] addresses T2, cynomolgus PTK-7 recombinant protein (cynomolgus monkey, UniProt A0A2K5VNI5 39-712).
T2 construct: also called cynomolgus monkey PTK7 protein; cyano PTK7
T2 sequence: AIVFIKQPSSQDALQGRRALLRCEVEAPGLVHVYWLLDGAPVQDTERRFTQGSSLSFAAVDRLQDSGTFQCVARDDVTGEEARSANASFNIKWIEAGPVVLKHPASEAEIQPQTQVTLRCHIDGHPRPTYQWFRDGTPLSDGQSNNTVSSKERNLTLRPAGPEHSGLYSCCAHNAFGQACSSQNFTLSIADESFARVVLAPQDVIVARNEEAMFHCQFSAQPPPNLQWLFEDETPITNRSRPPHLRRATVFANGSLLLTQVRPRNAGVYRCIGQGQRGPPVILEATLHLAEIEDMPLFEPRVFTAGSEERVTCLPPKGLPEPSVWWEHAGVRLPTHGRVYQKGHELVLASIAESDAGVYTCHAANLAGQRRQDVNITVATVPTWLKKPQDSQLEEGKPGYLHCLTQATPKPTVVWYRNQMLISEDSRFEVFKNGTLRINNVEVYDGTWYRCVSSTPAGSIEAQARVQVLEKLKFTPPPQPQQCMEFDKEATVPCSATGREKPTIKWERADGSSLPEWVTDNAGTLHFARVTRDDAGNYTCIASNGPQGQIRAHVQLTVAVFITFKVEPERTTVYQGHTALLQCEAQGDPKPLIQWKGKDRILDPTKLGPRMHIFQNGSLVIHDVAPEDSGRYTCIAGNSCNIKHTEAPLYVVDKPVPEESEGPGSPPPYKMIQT
In words: ELISA, plate-coated cynomolgus PTK7 protein, anti-human Fc-HRP detection. The protocol:
(§1) Binding specificity property was tested by ELISA according to a standard protocol. Specifically, 96-well micro-plates were coated with 2 μg/mL human, cynomolgus, mouse, and rat PTK-7 recombinant protein in PBS 100 μL per well, incubated overnight at 4° C. Plates were washed twice by TBS+0.5% Tween20. 200 μL of blocking buffer (2% BSA in PBS) was added to each well and incubated at 37° C. for 2 hours. Plates were washed using the buffer mentioned above. Serially diluted antibodies were added to the ELISA plate with 100 μL per well and incubated for 1 hour at room temperature. Then plates were washed for 3 times. After washing, HRP conjugated anti-human Fc antibody solution (abcam, ab98624, diluted with blocking buffer) was added to the plate with 100 μl per well. The plates were incubated at room temperature for 1 hour and then washed for 3 times. Then TMB solution was added to plates with 100 μl per well, placed at room temperature for 5-15 mins, then the stop solution (2M H₂SO₄) was added with 50 μl per well. Finally, the result was measured by absorbance at A₄₅₀ and A₆₃₀.

The target in experiment [3] is T1, human PTK7 on the surface of …. The experiment can be described thus: flow cytometry on PA-1 cells, PE anti-human Fc detection, MFI(PE).
Experiment [4] addresses T3, human PTK-7 recombinant protein (human, UniProt Q13308 31-704, limits assumed).
T3 construct: also called human PTK7 protein
T3 sequence (looked up): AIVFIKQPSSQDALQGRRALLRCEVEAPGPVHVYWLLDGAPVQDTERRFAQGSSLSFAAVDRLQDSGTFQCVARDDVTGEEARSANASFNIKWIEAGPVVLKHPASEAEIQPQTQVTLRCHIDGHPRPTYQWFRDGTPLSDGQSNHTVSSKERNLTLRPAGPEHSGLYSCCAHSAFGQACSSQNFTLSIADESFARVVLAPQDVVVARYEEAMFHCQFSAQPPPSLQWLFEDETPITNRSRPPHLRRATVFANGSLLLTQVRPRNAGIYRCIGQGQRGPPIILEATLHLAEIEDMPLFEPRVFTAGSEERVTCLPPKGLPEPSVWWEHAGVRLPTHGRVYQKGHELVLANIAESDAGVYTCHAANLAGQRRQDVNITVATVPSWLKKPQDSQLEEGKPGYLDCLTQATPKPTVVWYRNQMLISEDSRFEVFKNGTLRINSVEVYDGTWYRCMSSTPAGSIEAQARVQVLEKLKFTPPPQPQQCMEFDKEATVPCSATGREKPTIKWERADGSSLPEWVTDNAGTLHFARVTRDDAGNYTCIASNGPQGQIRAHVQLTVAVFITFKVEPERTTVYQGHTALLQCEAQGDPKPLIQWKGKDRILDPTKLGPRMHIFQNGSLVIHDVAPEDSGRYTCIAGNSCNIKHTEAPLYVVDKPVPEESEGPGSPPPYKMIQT
In words: ELISA, plate-coated human PTK7 protein, anti-human Fc-HRP detection. The procedure: as §1

B1: humanized antibody 2C8 (antibody, V domains shown)
VH: QIQLVQSGAEVKKPGASVKVSCKASGYTFTTYGMSWVRQAPGQGLEWMGWINTHSGVPTYVDEFKGRVTMTLDTSTSTAYMELSSLRSEDTAVYYCARSPFDYGSRGAWFVYWGQGTTVTVSS
VL: DVVMTQSPDSLAVSLGERATINCRSSQSIVHNSGDTYLEWYQQKPGQPPKLLIYKVSNRFPGVPDRFSGSGSGTDFTLTISSLQAEDLAVYYCFQGSHVPWTFGGGTKVEIK
notes: Only variable regions are tied to 2C8 by name; It was detected with anti-human Fc
Turning to B1, the EC50 in experiment [1] turned out to be 0.423 nM; in experiment [2], 2.61 nM; in experiment [3], 0.562 nM; in experiment [4], 0.032 nM.

B2: humanized antibody 2C5 (antibody, V domains shown)
VH: QVQLVQSGAEVKKPGASVKVSCKASGYTFTDYYINWVRQAPGQGLEWMGDINPYSGGPVYNQKFMARVTMTVDKSINTAYMELSRLRSDDTAVYYCARGDYYGSNYNYWGQGTLVTVSS
VL: EIVLTQSPATLSVSPGERATLSCRASQNIGTSIHWYQQKPGQAPRLLIKFASESISGIPARFSGSGSGTEFTLTISSLQSEDIAVYYCQQSNNWPYTFGQGTKLEIK
notes: Only variable regions are tied to 2C5; It was detected with anti-human Fc, so it has a human Fc
In the case of B2, the half-maximal effective concentration (EC50) was 0.506 nM in experiment [1], 1.67 nM in experiment [2], 0.711 nM in experiment [3] and 0.027 nM in experiment [4].

B3: humanized antibody 13C4 (antibody, V domains shown)
VH: QVQLVESGGGLVKPGGSLRLSCAASGFAFSTYDMFWIRQAPGKGLEWVSTISSGGGYTYYPGSVKGRFTISRDNAKNSLYLQMNSLRAEDTAVYYCVRPLLRDSYFYFDVWGQGTMVTVSS
VL: EIVMTQSPATLSVSPGERATLSCRASSSVSSSYLHWYQQKPGQAPRLLIFRTSNLASGIPARFSGSGSGTEYTLTISSLQSEDAAVYYCQQYSGYPLTFGQGTKLEIK
notes: Only variable regions are tied to 13C4; It was detected with anti-human Fc
For the molecule B3, the EC50 is 0.828 nM in experiment [1], 1.14 nM in experiment [2], 0.808 nM in experiment [3] and 0.022 nM in experiment [4].
